Reference: patent US20260042827A1, “ANTI-WT1 ANTIGEN-BINDING PROTEINS AND USES THEREOF” (UNIVERSITY HEALTH NETWORK, priority 2022, published 2026)

System: WT1 peptide presented by HLA-DP molecules on K562 transfectants
Experiment: Flow cytometric staining of K562 transfectants with WT1-specific mAb
Assay type: cell-based, human
Conditions: flow cytometry; for recognition of naturally processed WT1 peptide on K562/DP cells: K562/DP2 and K562/DP4, endogenous or ectopic WT1; for recognition of exogenously-pulsed WT1 peptide presented by DP molecules: K562 transfectants pulsed with WT1 peptide
Description: FIGS. 5A-5S present data showing that WT1-specific mAbs bind to WTT peptide presented by HLA-DP molecules. FIGS. 5A-5B show binding of B7/21 (an anti-HLA-DP mAb) or WT1-specific mAbs to immobilized WT1 peptide or DP4/WT1 monomers as assessed by ELISA. m Abs were added to ELISA plate coated with WT1330-348 or CLIP (control) (FIG. 5A). mAbs were added to ELISA plate coated with DP4/WT1330-348 monomers or DP4/CLIP monomers (control) (FIG. 5B). The data shown represent the mean±SD of experiments performed in triplicates. Results are representative of two independent experiments. ns, not significant, *p<0.05, **p<0.01, ***p<0.001, ****p<0.0001 by two-way ANOVA with Bonferroni correction. […] Interaction strength was measured by a BLI binding assay. FIGS. 5F-5K show the indicated K562 transfectants pulsed with WT1330-348 or CLIP (control) and stained with WT1-specific mAb, 5H2, followed by PE-conjugated anti-mouse secondary Ab and flow cytometric analysis. FIGS. 5L-5S show the indicated K562 transfectants stained with WT1-specific mAb, 5H2, or isotype control mAb, followed by PE-conjugated anti-mouse secondary Ab and flow cytometric analysis.
For surface staining, cells were pelleted and resuspended in a mAb master mix diluted in a PBS/2% FBS buffer. Cells were incubated at 4° C. for 15 minutes and washed prior to analysis. Monoclonal antibodies recognizing the following targets were used for surface staining: CD4 (300505, 1:40, BioLegend), CD8 (301007, 1:100, BioLegend), pan HLA class II (361703, 1:100, BioLegend), NGFR (345131, 1:40, BioLegend), CD25 (301007, 1:100, BioLegend), CD62L (304805, 1:25, BioLegend), CD45RA (304111, 1:10, BioLegend), PD-1 (329905, 1:40, BioLegend), Tim-3 (345007, 1:20, BioLegend). Mouse isotype controls were purchased from BioLegend. Biotinylated Protein-L was purchased from GenScript. For intracellular cytokine staining, TCR or CAR-T cells were stimulated with indicated target cells at an E:T ratio of 1:1. Brefeldin A (BioLegend) was added to the culture media after 2 hours, and the cells were further cultured for 4 hours. Following the surface marker staining, the cells were fixed and permeabilized using the Cytofix/Cytoperm Kit (BD Biosciences) and stained with FITC-anti-IL-2 (500305, 1:20, BioLegend), APC-anti-TNF-α (502913, 1:100, BioLegend), and PE-Cy7-anti-IFN-7 (506517, 1:200, BioLegend). The frequency of cytokine-producing cells within the CD8^+ or CD4^+ T cell population was determined by flow cytometric analysis. For intracellular WT1 staining, cells were fixed and permeabilized using the Cytofix/Cytoperm Kit (BD Biosciences) and stained with mouse anti-WT1 mAb (NB110-60011SS, 1:200, Novus Biologicals), followed by BV421-anti-mouse IgG (405317, 1:20, BioLegend). […]

B1: 5H2: mouse WT1-specific mAb raised against WT1330-348 peptide; VH SEQ ID NO: 37, VL SEQ ID NO: 38 (antibody, V domains shown)
VH: EVQLQQSGAELVRPGALVKLSCKASGFNIKDYYMHWVKQRPEQGLEWIGWIDPENGNTIYDPKFQGKASITADTSSNTAYLQLSSLTSGDTAVYYCTRDGYYMVFAYWGQGTLVTVSA
VL: DIQMTQSPSSLSASLGGKVTITCKASQDINKCIAWYKHKPGKGPRLLIHYTSILQPGIPSRFSGSGSGRDYSFSISNLEPEDIATYYCLQYDNLYTFGGGTKLEIK
modifications: 5H2 - VH; 5H2 - VL
In the case of B1, the “recognition of naturally processed WT1 peptide on K562/DP cells” value is reported as “can bind to K562/DP2 and K562/DP4 cells which express endogenous WT1”, the “recognition of naturally processed WT1 peptide on K562/DP cells” value (listed as WT1-specific mAb) is reported as “can recognize naturally processed WT1 peptide presented by HLA-DP2” and the “recognition of exogenously-pulsed WT1 peptide presented by DP molecules” value is reported as “can recognize exogenously-pulsed WT1330-348 presented by multiple DP molecules such as DP2 and DP5 in addition to DP4”. The “recognition of exogenously-pulsed WT1 peptide presented by DP molecules” value (listed as WT1-specific mAb) was “can recognize exogenously-pulsed WT1328-348 peptide presented by different HLA-DP molecules”.
